41 sequences from the nanobody polyreactivity screen of Harvey et al. (2022) can be followed below.

A short description of the series: yeast display, Sf9 membrane polyspecificity reagent, FACS + sequencing; frameworks hold sequencing errors. In outline:
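Synthetic nanobody libraries on Saccharomyces cerevisiae BJ5465 were galactose-induced for 36–48 hours, stained 1 hour at 4 °C with 10% biotinylated, detergent-solubilized Sf9 membrane reagent and enriched on streptavidin microbeads. FACS then separated cells into low and high (top ~1%) gates by anti-HA (expression) and streptavidin (reagent binding) fluorescence. Genes were colony-PCR amplified, MiSeq 2 × 250 sequenced and CDR-length filtered. A clone's polyreactivity label is that of its gate of origin.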
Turning to “QVQLVESGGGLVQAGGSLRLSCAASGFTFGRYAMGWYRQAPGKERELVAAITWSGGTTTYYADSVKGRFTISRDNAKNTVYLQMNSLKPEDTAVYYSAADLYFYIYSYNYWGQGTQVTVSS”, the “polyreactivity (PSR sort gate)” value was “low polyreactivity”.
For the sequence “QVQLVESGGGLVQAGGSLRLSCAASGFTFGRYAMGWYRQAPGKERELVASITSGGSTYYADSVKGRFTISRDNAKNTVYLQMNSLKPEDTAVYYCAAEWRWWGGYYYWGQGTQVTVSS”, the “polyreactivity (PSR sort gate)” value is listed as “high polyreactivity”.
The same measure for “QVQLVESGGGLVQAGGSLRLSCAASGFTFGRYTMGCYRQEPGKERELVAAISKSGSGTFYADSVKGRFTISRDNAKNTVYLQINSLKPEDTAVYYCAARYRHFGNQVRTSHSIMYYWGQGTQVTVSS”: “high polyreactivity”.
As for “QVQLVESGGGLVQAGGSLRLSCAASGFTFGRYTMGWYRQAPGKERELVAAISWSGGSTYYADSVKGRFTISRDNAKNTVYLQMNSLKPEDTAVYYCAKVFRGGRGDYWGQGTQVTVSS”, the “polyreactivity (PSR sort gate)” value was “high polyreactivity”.
With “QVQLVESGGGLVQAGGSLRLSCAASGFTFGSNAMGWYRQAPGKERELVAAISYSGTRTYYADSVKGRFTISRDNAKNTVYLQMNRLKPEDTAVYYCAAGFRKTQFNVRYYYWGHGTQVTVSS”, the “polyreactivity (PSR sort gate)” value was “high polyreactivity”.
Regarding “QVQLVESGGGLVQAGGSLRLSCAASGFTFGSYAMGWYRQAPGKERELVAAIRQSATRTYYADSVKGRFTISRDNAKNTVYLQMNSLKPEDTAVYYCNVARPGKYFYIYDYWGQGTQVTVSS”, the “polyreactivity (PSR sort gate)” value is “low polyreactivity”.
Consider “QVQLVESGGGLVQAGGSLRLSCAASGFTFGSYAMGWYRQAPGKERELVAAITASGGSTYYADSVKGRFTISRDNPKNTVYLQMNSLKPEDTAVYYCNKRWTYKWDDYWGQGTQVTVSS”, for which the “polyreactivity (PSR sort gate)” value is given as “high polyreactivity”.
Consider “QVQLVESGGGLVQAGGSLRLSCAASGFTFGTYAMGWYRQAPGKERELVAAITSSGTITYYADSVKGRFTISRDNAKNTVYLQMNSLKPEDTAVYYCAARRFRRLRWGQGTQVTVSS”, for which the “polyreactivity (PSR sort gate)” value was “low polyreactivity”.
Turning to “QVQLVESGGGLVQAGGSLRLSCAASGFTFGVYAMGWYRQAPGKERELVAAITWGDGSTYYADSVKGRFTISRDNAKNTVYLQMYSLKPEDTAVYYCIAVTRRHIYYYWGQGTQVTVSS”, the “polyreactivity (PSR sort gate)” value is “high polyreactivity”.
As for “QVQLVESGGGLVQAGGSLRLSCAASGFTFGVYTMGWYRQAPGKETELVASISWDGGSTYYADSVKGRFTISRDNAKNTVYLQMNSLKPEDTAVYYCAKGSSFYYGYDYWGQGTQVTVSS”, the “polyreactivity (PSR sort gate)” value is on record as “low polyreactivity”.
Consider “QVQLVESGGGLVQAGGSLRLSCAASGFTFGWNAMGWYRQAPGKERELVAAISWSGGSTYYADSVKGRFTISRDNAKKTVYLQMNSLKPEDTAVYYCAAYPAYGGDYWGQGTQVTVSS”, for which the “polyreactivity (PSR sort gate)” value was “high polyreactivity”.
As to “QVQLVESGGGLVQAGGSLRLSCAASGFTFGWNAMGWYRQAPGKERELVAAISWSGGSTYYADSVKGRFTISRDNAKNTVYLQMNSLKPEDTAVYYCAAYPAYGGDYWGQGTQVTVSS”, the “polyreactivity (PSR sort gate)” value is listed as “high polyreactivity”.
On to “QVQLVESGGGLVQAGGSLRLSCAASGFTFGWYAMGRYRQAPGKERELVAAISRGGSTYYADSVKGRFTISRDNAKNTVYLQMNSLKPEDTAVYYCNAAGLPTQLYYWGQGTQVTVSS”, for which the “polyreactivity (PSR sort gate)” value is “high polyreactivity”.
As for “QVQLVESGGGLVQAGGSLRLSCAASGFTFGYNDMGWYRQAPGKERELVAAIRLSDGGTYYADSVKGRFTISRDNAKNTVYLQMNSLKPEDTAVYYCAAPQDTYIPYDYWGQGTQVTVSS”, the “polyreactivity (PSR sort gate)” value is “low polyreactivity”.
As for “QVQLVESGGGLVQAGGSLRLSCAASGFTFGYNTMGWYRQAPGKERELVATITSGGSTYYADSVKGRFTISRDNAKNTDYLQMNSLKPEDTAVYYCAATAGSPWAKSRYGYWGQGTQVTVSS”, the “polyreactivity (PSR sort gate)” value is listed as “low polyreactivity”.
In the case of “QVQLVESGGGLVQAGGSLRLSCAASGFTFGYYAKGWYRQAPGKERELVAGISRGGRTNYADSVKGRFTISRDNAKNTVYLQMNSLKPEDTAVYYCAKDTYYPSSRYNRYYYWGQGSQVTVSS”, the “polyreactivity (PSR sort gate)” value was “high polyreactivity”.
As for “QVQLVESGGGLVQAGGSLRLSCAASGFTFGYYALGWYRQAPGKERELVAAINYSGGSTYYADSVKGRFTISRDNAKNTVYLQMNSLKPEDTAVYYCAAQSYYGRGYWGQGTQVTVSS”, the “polyreactivity (PSR sort gate)” value is “high polyreactivity”.
The same measure for “QVQLVESGGGLVQAGGSLRLSCAASGFTFGYYAMGWYRQAPGKERELVAAISSRGSGTYYADSVKGRFTMSRDNAKNTVYLQLNSLKPEDTAVYYCARPSALLGYWGQGTQVTVSS”: “low polyreactivity”.
With “QVQLVESGGGLVQAGGSLRLSCAASGFTFGYYAMGWYRQAPGKERELVAAITYSGGSTYYADSVKGRFTISRDNAKNTVYLQMNSLKPEDTAVYYCNAYARRYYYGRWYGEFDYWGQGTQVTVSS”, the “polyreactivity (PSR sort gate)” value is “low polyreactivity”.
On to “QVQLVESGGGLVQAGGSLRLSCAASGFTFGYYAMGWYRQAPGKERELVGAINWSGGRTYYADSVKGRFTISRDNAKNTVYLQMNSLKPEDTAVYYCAASAHYDGDYWGQGTQVTVSS”, for which the “polyreactivity (PSR sort gate)” value is “high polyreactivity”.
The same measure for “QVQLVESGGGLVQAGGSLRLSCAASGFTFGYYGMGWYRQAPGKERELVAAISWSGGSTYYADSVKGRFTISRDNEKNTVYLQMNSLKPEDTAVYYCNADYAGFYQRRYIEDDYWGQGTQVTVSS”: “low polyreactivity”.
For the sequence “QVQLVESGGGLVQAGGSLRLSCAASGFTFGYYGMGWYRQAPGKVRELVAAINWSGVNTNYADSVKGRFTISRDNAKNTVYLQMNSLKPEDTAVYYCAADAGYDGYGYWGQGTQVTVSS”, the “polyreactivity (PSR sort gate)” value is recorded as “low polyreactivity”.
“QVQLVESGGGLVQAGGSLRLSCAASGFTFGYYTMGWYRQAPGKERELVAAISSSGGSTYYADSVKGRFTISRDNAKNTVYLQMNSLKPEDTAVYYCAARSVRYGGRYDYWGQGTQVTVSS”: the “polyreactivity (PSR sort gate)” value is on record as “high polyreactivity”.
Regarding “QVQLVESGGGLVQAGGSLRLSCAASGFTFGYYTMGWYRQAPGKERELVASISWDGGSTYYADSVKGRFTISRDNAKNTVYLQMHSLKPEDTAVYYCATDDYDQLAVGAYDYWGQGTQVTVSS”, the “polyreactivity (PSR sort gate)” value was “low polyreactivity”.
Consider “QVQLVESGGGLVQAGGSLRLSCAASGFTFHGYAMGWYRQAPGKERELVAAISSSGGRTYYADSVKGRFTISRDNAKNTVYLQMNSLKPEDPEVYYCAAKARGIYVPDGGYWGQGTQVTVSS”, for which the “polyreactivity (PSR sort gate)” value is recorded as “high polyreactivity”.
The same measure for “QVQLVESGGGLVQAGGSLRLSCAASGFTFHNNVMGWYRQAPGKERELVATISKSGGSTYYADSVKGRFTISRDNAKNTVYLQMNSLKPEDTAVYYCARRYRDYGRYGYWGQGTQVTVSS”: “high polyreactivity”.
Regarding “QVQLVESGGGLVQAGGSLRLSCAASGFTFHRNAMGWYRQAPGKERELVAAISTRGGSTAYADSVKGRFTISRDNAKNTVYLQMNSLKPEDTAVYYCAARVRVTGTYYTKYDYWGQGTQVTVSS”, the “polyreactivity (PSR sort gate)” value is given as “high polyreactivity”.
As for “QVQLVESGGGLVQAGGSLRLSCAASGFTFHRNAMGWYRQAPGKERELVAAITLNGGSSTYYADSVKGRFTISRDNAKNTVYLQMNSLKPEDTAVYYCARDSYSYTFSKNSDPAEYDYWGQGTQVTVSS”, the “polyreactivity (PSR sort gate)” value is “low polyreactivity”.
The result for “QVQLVESGGGLVQAGGSLRLSCAASGFTFHSYAMGWYRQAPGKERELVATISRSGGSTYYADSVKGRFTISRDNAKNTVYLQMNSLKPEDTAVYYCNKLLYGWSKPVGYDYYWGQGTQVTVSS” reads “high polyreactivity”; that for “QVQLVESGGGLVQAGGSLRLSCAASGFTFHTYAMGWYRQAPGKERELVAAIDSSGGITYYADSVKGRFTISRDHAKNTVYLQMNSLKPEDTAVYYCAAVFLLFGFEWSYDYWGQGTQVTVSS”, “low polyreactivity”.
Turning to “QVQLVESGGGLVQAGGSLRLSCAASGFTFHYYAMGWYRQAPGKEWELVAAITKSGGRTSYADSVKGRFTISRDNAKNTVYLQMNSLKPEDTAVYYCAAARYRARIGNDYWGQGTQVTVSS”, the “polyreactivity (PSR sort gate)” value is recorded as “low polyreactivity”.
Take “QVQLVESGGGLVQAGGSLRLSCAASGFTFIDNTMGWYRQAPGKERELVAAISSDGRTNYAVSVKGRFTISRDNAKNTVYLQMNSLKAEDTAFYYCATEDNYWYVTGDLYHSAFYYWGQGTQVTVSS”: the “polyreactivity (PSR sort gate)” value was “low polyreactivity”.
For the sequence “QVQLVESGGGLVQAGGSLRLSCAASGFTFIPNAMGWYRQAPGKERELVADITWSGGTTYYADSVKGRFTISRDNAKNTVYLQMNSLKPEDTAVYYCNADYLFYAFDYWGQGTQVTVSS”, the “polyreactivity (PSR sort gate)” value is given as “low polyreactivity”.
The result for “QVQLVESGGGLVQAGGSLRLSCAASGFTFIQYAMGWYRPAPGKERELVAAMTWSGGRTYYADSVKGRFTISRDNAKNTVYLHMNSLKPEDTAVYYCAKPFNIWGQGTKVTVSS” reads “high polyreactivity”; that for “QVQLVESGGGLVQAGGSLRLSCAASGFTFIRNAMGWYRQAPGKERELVAAISWRGVRTYADSVKGRFTISRDNAKNTVYLQMHSQKPEDTAVYYCAARDAHYYPTMGYWGQGTQVTVSS”, “high polyreactivity”.
With “QVQLVESGGGLVQAGGSLRLSCAASGFTFIRYAMGWDRQAPGKERELVAAISVSGGRTYYADSVKGRFTISRDNAKNTVYLQMNSLKPEDTAVYYCARRPSYYQGDYWGQGTQVTVSS”, the “polyreactivity (PSR sort gate)” value is reported as “high polyreactivity”.
In the case of “QVQLVESGGGLVQAGGSLRLSCAASGFTFIRYAMGWYRPAPGKERELVATITRRGGSTYYADSVKGRFSISRDNAKNTVYLQMNCLKPEDTAVYYCNRDYVTYGKYYYWGQGTQVTVSS”, the “polyreactivity (PSR sort gate)” value is given as “high polyreactivity”.
The same measure for “QVQLVESGGGLVQAGGSLRLSCAASGFTFIRYAMGWYRQAPGKARELVAAIRGTGTSTYYADSVKGRFTISRDNAKNTVYLQMNSLKPEDTAVYYCNKVAGRSPYTRYDYWGQGTQVTVSS”: “low polyreactivity”.
As to “QVQLVESGGGLVQAGGSLRLSCAASGFTFISNAMGWYRQAPGKERELVAAISGRGGRTYYADSVKGRFTISRDNAKNTVYLQMNSLKPEDTAVYYCNAVFRKLHYDYWGQGTQVTVSS”, the “polyreactivity (PSR sort gate)” value is reported as “high polyreactivity”.
Regarding “QVQLVESGGGLVQAGGSLRLSCAASGFTFIVNPMGWYRQAPGKERELVAAISWNGGSTYYADSVKGRFTISRDNAKNTVYLQMNSLKPEDTAVYYCAVLYRSEYVWGQGTQVTVSS”, the “polyreactivity (PSR sort gate)” value is reported as “low polyreactivity”.
For the sequence “QVQLVESGGGLVQAGGSLRLSCAASGFTFIYNAMGWYRQAPGKERELVAAISYRTSRTYYADSVKGRFTISRDNAKNTVYLQMNSLKPEDTAVYYCAKGYGRHGLDYWGQGTQVTVSS”, the “polyreactivity (PSR sort gate)” value was “high polyreactivity”.
